Source: paper PMC8884472 (Molecular cell, 2022)

B1: recombinant KLHL12^6xHis (natural protein, UniProt Q53G59 1-568, looked up)
chain: MGGIMAPKDIMTNTHAKSILNSMNSLRKSNTLCDVTLRVEQKDFPAHRIVLAACSDYFCAMFTSELSEKGKPYVDIQGLTASTMEILLDFVYTETVHVTVENVQELLPAACLLQLKGVKQACCEFLESQLDPSNCLGIRDFAETHNCVDLMQAAEVFSQKHFPEVVQHEEFILLSQGEVEKLIKCDEIQVDSEEPVFEAVINWVKHAKKEREESLPNLLQYVRMPLLTPRYITDVIDAEPFIRCSLQCRDLVDEAKKFHLRPELRSQMQGPRTRARLGANEVLLVVGGFGSQQSPIDVVEKYDPKTQEWSFLPSITRKRRYVASVSLHDRIYVIGGYDGRSRLSSVECLDYTADEDGVWYSVAPMNVRRGLAGATTLGDMIYVSGGFDGSRRHTSMERYDPNIDQWSMLGDMQTAREGAGLVVASGVIYCLGGYDGLNILNSVEKYDPHTGHWTNVTPMATKRSGAGVALLNDHIYVVGGFDGTAHLSSVEAYNIRTDSWTTVTSMTTPRCYVGATVLRGRLYAIAGYDGNSLLSSIECYDPIIDSWEVVTSMGTQRCDAGVCVLREK

Key:
recombinant KLHL12^6xHis = target: B1; assay: pull-down
recombinant CUL3/RBX1 = recombinant CUL3/RBX1 (UniProt Q13618 1-768; P62877 1-108); assay: pull-down
Sequence of recombinant CUL3/RBX1 (Q13618 whole entry, chain 1 of 2): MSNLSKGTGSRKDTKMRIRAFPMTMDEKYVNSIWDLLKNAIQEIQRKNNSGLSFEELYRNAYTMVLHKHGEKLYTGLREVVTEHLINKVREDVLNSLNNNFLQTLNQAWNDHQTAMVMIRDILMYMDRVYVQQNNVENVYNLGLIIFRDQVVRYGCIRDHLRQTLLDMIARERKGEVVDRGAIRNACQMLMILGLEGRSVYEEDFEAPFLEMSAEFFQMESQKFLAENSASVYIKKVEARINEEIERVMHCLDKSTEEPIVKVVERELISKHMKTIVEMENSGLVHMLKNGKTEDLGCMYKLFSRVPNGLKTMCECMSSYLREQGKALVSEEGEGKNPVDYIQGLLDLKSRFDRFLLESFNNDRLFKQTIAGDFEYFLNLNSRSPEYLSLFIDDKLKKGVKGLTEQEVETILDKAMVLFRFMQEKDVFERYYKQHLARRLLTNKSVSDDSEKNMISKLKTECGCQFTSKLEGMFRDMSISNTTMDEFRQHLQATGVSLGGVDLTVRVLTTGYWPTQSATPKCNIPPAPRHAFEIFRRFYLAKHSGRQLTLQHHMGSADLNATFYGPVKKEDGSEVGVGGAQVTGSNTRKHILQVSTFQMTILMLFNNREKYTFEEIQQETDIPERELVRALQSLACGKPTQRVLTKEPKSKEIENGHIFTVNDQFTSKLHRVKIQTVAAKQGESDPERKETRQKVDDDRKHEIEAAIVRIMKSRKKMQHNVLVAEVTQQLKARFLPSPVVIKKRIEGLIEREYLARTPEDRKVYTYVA
Sequence of recombinant CUL3/RBX1 (P62877 whole entry, chain 2 of 2): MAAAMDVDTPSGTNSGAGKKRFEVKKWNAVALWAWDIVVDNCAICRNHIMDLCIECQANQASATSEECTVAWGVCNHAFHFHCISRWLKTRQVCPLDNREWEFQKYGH

binding result (recombinant KLHL12^6xHis)	binding result (recombinant CUL3/RBX1)	Binder
binds		recombinant PEF1 (natural protein, UniProt Q9UBV8 1-284, looked up) MASYPYRQGCPGAAGQAPGAPPGSYYPGPPNSGGQYGSGLPPGGGYGGPAPGGPYGPPAGGGPYGHPNPGMFPSGTPGGPYGGAAPGGPYGQPPPSSYGAQQPGLYGQGGAPPNVDPEAYSWFQSVDSDHSGYISMKELKQALVNCNWSSFNDETCLMMINMFDKTKSGRIDVYGFSALWKFIQQWKNLFQQYDRDRSGSISYTELQQALSQMGYNLSPQFTQLLVSRYCPRSANPAMQLDRFIQVCTQLQVLTEAFREKDTAVQGNIRLSFEDFVTMTASRML
	binds	B1
